{"source": "patent US20140099312A1", "about": "(Regeneron, published 2014)", "biological_target": "hPCSK9(D374Y)-mmh (human, UniProt Q8NBP7 31-692)", "assay": "cell-based or functional assay"}
{"binder": "H1M300N (antibody, V domains shown) VH: EMQLVESGGGLVQPGGSLRLSCAASGFTFSSHWMKWVRQAPGKGLEWVANINQDGSEKYYVDSVKGRFTISRDNAKNSLFLQMNSLRAEDTAVYYCARDIVLMVYDMDYYYYGMDVWGQGTTVTVSS VL: not shown", "values": [{"measurement": "IC50, LDL uptake in HepG2 cells", "result": 1.1, "unit": "nM"}]}
